Test results as given in patent US20210079056A1 (Bayer, published 2021).

T1: rat CNP receptor (NPR-B) (rat, UniProt P16067 17-1047)
T1 sequence (looked up): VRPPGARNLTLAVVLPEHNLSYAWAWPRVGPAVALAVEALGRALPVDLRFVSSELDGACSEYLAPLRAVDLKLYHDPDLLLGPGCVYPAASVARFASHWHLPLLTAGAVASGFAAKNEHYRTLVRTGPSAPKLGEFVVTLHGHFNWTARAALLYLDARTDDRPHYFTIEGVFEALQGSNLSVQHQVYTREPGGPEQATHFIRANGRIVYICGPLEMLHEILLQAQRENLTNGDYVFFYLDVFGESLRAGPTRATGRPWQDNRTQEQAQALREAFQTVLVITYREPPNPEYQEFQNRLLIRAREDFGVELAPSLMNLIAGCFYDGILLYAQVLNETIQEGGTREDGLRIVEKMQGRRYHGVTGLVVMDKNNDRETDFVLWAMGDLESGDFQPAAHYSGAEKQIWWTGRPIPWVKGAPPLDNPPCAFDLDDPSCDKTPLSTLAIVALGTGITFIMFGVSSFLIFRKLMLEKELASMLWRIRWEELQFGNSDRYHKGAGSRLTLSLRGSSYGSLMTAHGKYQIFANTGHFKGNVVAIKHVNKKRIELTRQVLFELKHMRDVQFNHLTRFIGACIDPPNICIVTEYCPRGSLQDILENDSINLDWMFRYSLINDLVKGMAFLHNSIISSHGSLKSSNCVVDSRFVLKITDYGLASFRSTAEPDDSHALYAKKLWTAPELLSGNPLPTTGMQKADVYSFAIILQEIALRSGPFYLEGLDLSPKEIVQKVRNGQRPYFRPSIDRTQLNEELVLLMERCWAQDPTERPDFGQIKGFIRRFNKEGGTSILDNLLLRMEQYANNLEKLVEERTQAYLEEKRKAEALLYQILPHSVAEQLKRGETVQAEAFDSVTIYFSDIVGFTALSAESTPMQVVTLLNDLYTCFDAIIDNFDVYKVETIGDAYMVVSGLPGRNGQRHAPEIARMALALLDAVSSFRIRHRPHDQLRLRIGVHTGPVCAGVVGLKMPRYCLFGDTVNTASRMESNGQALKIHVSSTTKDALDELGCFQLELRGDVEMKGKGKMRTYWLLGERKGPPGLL

T2: human NPRA (human, UniProt P16066 33-1061)
T2 sequence (looked up): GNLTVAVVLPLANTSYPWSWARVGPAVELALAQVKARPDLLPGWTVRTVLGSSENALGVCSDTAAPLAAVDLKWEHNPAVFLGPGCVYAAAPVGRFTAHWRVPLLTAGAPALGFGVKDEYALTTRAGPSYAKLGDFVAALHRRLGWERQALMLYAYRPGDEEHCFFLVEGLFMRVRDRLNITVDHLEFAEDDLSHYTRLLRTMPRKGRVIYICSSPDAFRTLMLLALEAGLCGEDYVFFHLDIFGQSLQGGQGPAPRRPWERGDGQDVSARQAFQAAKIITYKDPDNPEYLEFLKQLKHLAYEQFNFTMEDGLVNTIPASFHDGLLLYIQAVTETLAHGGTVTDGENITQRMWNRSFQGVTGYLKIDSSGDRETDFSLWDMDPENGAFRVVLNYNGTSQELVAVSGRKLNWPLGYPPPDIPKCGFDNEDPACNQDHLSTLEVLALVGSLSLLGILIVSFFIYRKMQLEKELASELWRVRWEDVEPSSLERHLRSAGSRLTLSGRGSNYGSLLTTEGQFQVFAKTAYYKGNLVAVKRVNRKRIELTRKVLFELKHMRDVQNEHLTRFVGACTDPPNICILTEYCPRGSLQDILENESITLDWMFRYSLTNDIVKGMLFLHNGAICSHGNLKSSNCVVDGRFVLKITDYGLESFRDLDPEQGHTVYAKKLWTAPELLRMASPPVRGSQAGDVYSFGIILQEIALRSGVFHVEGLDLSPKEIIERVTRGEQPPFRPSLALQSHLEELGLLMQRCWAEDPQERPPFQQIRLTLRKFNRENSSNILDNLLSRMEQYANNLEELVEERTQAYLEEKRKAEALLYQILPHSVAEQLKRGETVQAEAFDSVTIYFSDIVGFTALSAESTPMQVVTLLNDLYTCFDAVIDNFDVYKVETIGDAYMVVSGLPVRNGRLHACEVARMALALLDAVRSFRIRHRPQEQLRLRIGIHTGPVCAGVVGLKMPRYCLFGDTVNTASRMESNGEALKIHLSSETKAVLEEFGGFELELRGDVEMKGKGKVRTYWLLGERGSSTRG

T3: rat ANP receptor (NPR-A) (rat, UniProt P18910 29-1057)
T3 sequence (looked up): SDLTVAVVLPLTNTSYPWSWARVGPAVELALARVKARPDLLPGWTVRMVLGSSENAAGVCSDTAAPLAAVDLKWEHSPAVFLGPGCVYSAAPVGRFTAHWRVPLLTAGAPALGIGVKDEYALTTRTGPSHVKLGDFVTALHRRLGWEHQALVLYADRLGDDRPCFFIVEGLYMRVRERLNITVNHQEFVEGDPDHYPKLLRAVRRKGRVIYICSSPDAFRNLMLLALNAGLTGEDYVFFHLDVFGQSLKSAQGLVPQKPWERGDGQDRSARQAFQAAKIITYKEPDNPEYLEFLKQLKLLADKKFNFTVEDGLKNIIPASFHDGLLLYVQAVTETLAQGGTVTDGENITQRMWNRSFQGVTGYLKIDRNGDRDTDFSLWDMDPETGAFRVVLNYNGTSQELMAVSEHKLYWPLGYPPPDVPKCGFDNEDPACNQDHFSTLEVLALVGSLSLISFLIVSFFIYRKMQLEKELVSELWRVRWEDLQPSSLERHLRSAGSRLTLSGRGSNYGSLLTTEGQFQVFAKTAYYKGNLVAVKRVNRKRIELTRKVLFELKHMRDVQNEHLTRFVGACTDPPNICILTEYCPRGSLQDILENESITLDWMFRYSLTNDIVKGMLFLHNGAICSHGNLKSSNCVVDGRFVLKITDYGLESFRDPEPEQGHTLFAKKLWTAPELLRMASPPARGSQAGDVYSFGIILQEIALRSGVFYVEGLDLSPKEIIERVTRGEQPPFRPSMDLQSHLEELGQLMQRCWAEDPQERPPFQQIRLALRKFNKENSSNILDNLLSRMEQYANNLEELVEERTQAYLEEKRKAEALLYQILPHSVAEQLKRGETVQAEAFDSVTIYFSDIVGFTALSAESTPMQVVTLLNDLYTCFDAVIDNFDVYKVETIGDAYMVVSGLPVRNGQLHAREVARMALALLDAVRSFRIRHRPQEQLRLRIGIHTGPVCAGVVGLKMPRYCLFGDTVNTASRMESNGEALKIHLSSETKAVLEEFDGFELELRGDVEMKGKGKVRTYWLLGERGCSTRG


Legend:
Experiment in all cases: cell-based or functional assay
rat CNP receptor (NPR-B) = target: T1, rat CNP receptor (NPR-B)
human NPRA = target: T2, human NPRA
rat ANP receptor (NPR-A) = target: T3, rat ANP receptor (NPR-A)

Binder | EC50, luminescence of cGMP reporter cells (rat CNP receptor (NPR-B)) | log EC50 ics, cGMP assay, stable hNPRA-CHO k1 cells (human NPRA) | log EC50 pcs, cGMP assay, stable hNPRA-CHO k1 cells, average (human NPRA) | log EC50 pcs, cGMP assay, transient hNPRA-HEK293 cells, average (human NPRA) | EC50, fluorescence of cGMP reporter cells (rat ANP receptor (NPR-A))
TPP-12377 (antibody) heavy: not shown light: QSVLTQPPSVSGAPGQRVTISCTGSSSNIGAGYDVHWYQQLPGTAPKLLIYGNSNRPSGVPDRFSGSKSGTSASLAITGLQAEDEADYYCQSYDSSLSGVVFGGGTKLTVLGQPKAAPSVTLFPPSSEELQANKATLVCLISDFYPGAVTVAWKADSSPVKAGVETTTPSKQSNNKYAASSYLSLTPEQWKSHRSYSCQVTHEGSTVEKTVAPTECS | 4.1 nM |  |  |  | 
TPP-12897 (antibody) heavy: not shown light: QSVLTQPPSVSGAPGQRVTISCTGSSSNIGAGYDVHWYQQLPGTAPKLLIYGNSNRPSGVPDRFSGSKSGTSASLAITGLQAEDEADYYCQSYDSSLDGVVFGGGTKLTVLGQPKAAPSVTLFPPSSEELQANKATLVCLISDFYPGAVTVAWKADSSPVKAGVETTTPSKQSNNKYAASSYLSLTPEQWKSHRSYSCQVTHEGSTVEKTVAPTECS | 10 nM |  |  |  | 
TPP-5661 (antibody) heavy: not shown light: QSVLTQPPSVSGAPGQRVTISCTGSSSNIGAGYDVHWYQQLPGTAPKLLIYGNSNRPSGVPDRFSGSKSGTSASLAITGLQAEDEADYYCQSYDSSLSGVVFGGGTKLTVLGQPKAAPSVTLFPPSSEELQANKATLVCLISDFYPGAVTVAWKADSSPVKAGVETTTPSKQSNNKYAASSYLSLTPEQWKSHRSYSCQVTHEGSTVEKTVAPTECS |  | -8.8 log M | -9.2 log M | -9 log M | 17 nM
